The text below walks through data of paper PMC9543391, “ERp57 chaperon protein protects neuronal cells from Aβ‐induced toxicity” (Journal of Neurochemistry, 2022).

For the assay, the target named is ERp57 (human recombinant PDIA3) (human) (UniProt P30101). Kind of assay: SPR; ERp57 immobilised by amine coupling on a COOH5 sensorchip (about 4000 RU), SensiQ Pioneer; non-aggregated Aβ25-35 injected for 240 s at 30 μl/min at 15.6 μM to 1.0 mM; 25°C; HBSP buffer (20 mM HEPES pH 7.4, 150 mM NaCl, 0.005% Tween-20); global kinetic fits with one or two binding sites (Qdat 4.0). On the technique in general: In SPR one partner is held on a chip, and binding of the other changes the refractive index at the surface.
Chain of ERp57 (human recombinant PDIA3) (human) (P30101 25-505): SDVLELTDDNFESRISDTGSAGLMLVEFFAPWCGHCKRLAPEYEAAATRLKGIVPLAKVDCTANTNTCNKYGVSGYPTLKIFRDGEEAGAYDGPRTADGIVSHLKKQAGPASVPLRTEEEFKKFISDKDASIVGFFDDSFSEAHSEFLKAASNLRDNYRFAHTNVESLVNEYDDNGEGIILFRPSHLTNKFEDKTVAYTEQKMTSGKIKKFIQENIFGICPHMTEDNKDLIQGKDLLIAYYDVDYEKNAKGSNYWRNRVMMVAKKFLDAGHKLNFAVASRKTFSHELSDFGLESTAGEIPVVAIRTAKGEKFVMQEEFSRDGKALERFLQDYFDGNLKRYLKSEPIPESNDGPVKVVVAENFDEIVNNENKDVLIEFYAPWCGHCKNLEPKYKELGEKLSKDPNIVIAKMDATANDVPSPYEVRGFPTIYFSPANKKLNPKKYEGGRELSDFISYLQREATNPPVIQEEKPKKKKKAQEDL

As for “Amyloid beta peptide fragment 25-35 (Aβ25-35)”, the KD1 (fit with two binding sites, high-affinity site) was determined as 34 µM and the KD2 (fit with two binding sites, low-affinity site) turned out to be 3.3 mM.
